# ± gives the uncertainty stated by the source.
# Test: self-splicing fitness, log relative to wild type (ln ratio); higher = more splicing; Tetrahymena group I intron in knt gene, E. coli kanamycin selection, DiMSum; sequences stand for … in CUCUCU…GGAGGGAAAAGUUAUCAGGCAUGCACCUGGUAGCUAGUCUUUAAACCAAUAGAUUGCAUCGGUUUAAAAGGCAAGACCGUCAAAUUGCGGGAAAGGGGUCAACAGCCGUUCAGUACCAAGUCUCAGGGGAAACUUUGAGAUGGCCUUGCAAAGGGUAUGGUAAUAAGCUGACGGACAUGGUCCUAACCACGCAGCCAAGUCCUAAGUCAACAGAUCUUCUGUUGAUAUGGAUGCAGUUCACAGACUAAAUGUCGGUCGGGGAAGAUGUAUUCUUCUCAUAAGAUAUAGUCGGACCUCUCCUUAAUGGGAGCUAGCGGAUGAAGUGAUGCAACACUGGAGCCGCUGGGAACUAAUUUGUAUGCGAAAGUAUAUUGAUUAGUUUUGGAGUACUCGUGGUCG
# Procedure, shortened: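 Fitness was computed with DiMSum as the error-weighted combination of replicate fold changes, kanamycin versus none, each normalised to wild type. The library randomised all eight intron nucleotides of the P1ex region, with the intron placed in the knt kanamycin-resistance gene on pET-22b(+) in E. coli BL21(DE3). Six replicate transformations were grown overnight at 37°C or 30°C on LB agar with or without 25 μg/mL kanamycin, plus 100 μg/mL carbenicillin, 50 μM IPTG and 0.2% rhamnose. Pooled colonies were amplicon-sequenced on an Illumina HiSeq 2500.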
Sequence,self-splicing fitness (ln) (30 °C),self-splicing fitness (ln) (37 °C)
GUACAGCAAUAUUACGGGGC,-3.74 ± 0.35,-2.77 ± 0.47
CUGUAGCAAUAUUACGUGAU,-1.56 ± 0.085,-0.44 ± 0.11
UCCAAGCAAUAUUACGGUGA,-0.389 ± 0.054,0.493 ± 0.077
ACCUAGCAAUAUUACGGCGC,-0.607 ± 0.097,0.63 ± 0.13
UGCCAGCAAUAUUACGACCG,-0.712 ± 0.1,0.509 ± 0.14
ACGUAGCAAUAUUACGCACU,-1.46 ± 0.18,-0.549 ± 0.23
AGCCAGCAAUAUUACGUCUC,-3.95 ± 0.37,-2.78 ± 0.27
CGCGAGCAAUAUUACGAUUU,-3.35 ± 0.21,-3.39 ± 0.24
AACAAGCAAUAUUACGAAGA,-2.78 ± 0.12,-2.12 ± 0.14
UACCAGCAAUAUUACGGCGG,-1.07 ± 0.058,-0.549 ± 0.081
GGAGAGCAAUAUUACGUAAU,–,-0.814 ± 0.2
GUGGAGCAAUAUUACGAAAC,–,-2.23 ± 0.3
AGCCAGCAAUAUUACGCCCC,-1.54 ± 0.24,0.277 ± 0.32
AUUGAGCAAUAUUACGGCGA,-1.96 ± 0.16,-0.878 ± 0.15
GCAUAGCAAUAUUACGUUUA,-2.47 ± 0.16,-1.61 ± 0.12
UGCGAGCAAUAUUACGGACU,–,-1.12 ± 0.34
ACACAGCAAUAUUACGUGUU,-3.16 ± 0.073,-3.62 ± 0.16
GGGAAGCAAUAUUACGCACG,-0.766 ± 0.16,-0.128 ± 0.18
AGAUAGCAAUAUUACGCGCA,-0.594 ± 0.063,-0.129 ± 0.094
ACGGAGCAAUAUUACGAGAC,-0.64 ± 0.18,–
AGAGAGCAAUAUUACGCGAA,-3.26 ± 0.37,-2.82 ± 0.34
CGCGAGCAAUAUUACGCUGA,-2.03 ± 0.22,-1.78 ± 0.35
CCUUAGCAAUAUUACGGGUU,–,-1.5 ± 0.21
UCACAGCAAUAUUACGCUCA,-1.61 ± 0.14,-0.171 ± 0.12
AUGUAGCAAUAUUACGGGCA,-0.222 ± 0.11,0.141 ± 0.1
CGGCAGCAAUAUUACGUCGA,-3.24 ± 0.19,-1.07 ± 0.15

Sequence,self-splicing fitness (ln) (30 °C),self-splicing fitness (ln) (37 °C)
UCAGAGCAAUAUUACGCCUG,-3.63 ± 0.3,–
UGCAAGCAAUAUUACGUGGC,-2.62 ± 0.16,-1.68 ± 0.2
UAAAAGCAAUAUUACGAGUC,-3.45 ± 0.27,-3.74 ± 0.39
CGUAAGCAAUAUUACGGUCA,-2.2 ± 0.15,-0.467 ± 0.12
GUUUAGCAAUAUUACGCGGG,-2.42 ± 0.19,-1.89 ± 0.19
CCGUAGCAAUAUUACGUGUC,-3.6 ± 0.29,-1.87 ± 0.32
CGAGAGCAAUAUUACGCCAG,–,-1.51 ± 0.4
UGGCAGCAAUAUUACGGUCG,-0.881 ± 0.083,0.133 ± 0.13
AUAGAGCAAUAUUACGCGGC,-3.33 ± 0.35,-1.78 ± 0.25
GCCGAGCAAUAUUACGACGC,-2.86 ± 0.23,-1.08 ± 0.21
GCGAAGCAAUAUUACGCCGU,-3.41 ± 0.35,-1.81 ± 0.29
AUUGAGCAAUAUUACGUGCU,-3.03 ± 0.24,-3.17 ± 0.35
UAGCAGCAAUAUUACGCUGU,-3.59 ± 0.25,-3.42 ± 0.35
UAGGAGCAAUAUUACGUCCG,-0.262 ± 0.28,1.13 ± 0.28
UUCGAGCAAUAUUACGAGAU,-3.95 ± 0.35,-2.34 ± 0.31
CCAGAGCAAUAUUACGGCCC,-2.44 ± 0.46,-1.44 ± 0.42
UGACAGCAAUAUUACGCGCA,-0.495 ± 0.072,0.187 ± 0.077
GUGAAGCAAUAUUACGGAUU,-0.624 ± 0.1,-0.344 ± 0.12
UUGUAGCAAUAUUACGCCAG,-0.515 ± 0.14,-0.137 ± 0.2
UCGAAGCAAUAUUACGCUUG,–,-2.64 ± 0.26
UAAAAGCAAUAUUACGGGUG,-0.67 ± 0.042,-0.46 ± 0.061
CAACAGCAAUAUUACGGUAU,-3.52 ± 0.1,-1.9 ± 0.09
AAAAAGCAAUAUUACGGGAU,-1.62 ± 0.075,-1.23 ± 0.086
ACAUAGCAAUAUUACGCCCU,-0.862 ± 0.083,-0.134 ± 0.1
GGGAAGCAAUAUUACGCGCG,-0.57 ± 0.13,-0.552 ± 0.14
UGGUAGCAAUAUUACGAGUG,-1.17 ± 0.13,-0.313 ± 0.16

Sequence,self-splicing fitness (ln) (30 °C),self-splicing fitness (ln) (37 °C)
GCUUAGCAAUAUUACGAUAG,-2.11 ± 0.096,-0.174 ± 0.097
CAAAAGCAAUAUUACGACUU,-1.83 ± 0.098,-0.224 ± 0.098
CUGGAGCAAUAUUACGUAUU,-3.84 ± 0.31,-2.09 ± 0.27
CCCUAGCAAUAUUACGACUG,-4.39 ± 0.36,-2.92 ± 0.27
AUAAAGCAAUAUUACGUACA,-0.00533 ± 0.067,0.315 ± 0.098
AGCAAGCAAUAUUACGUACC,-0.796 ± 0.078,0.398 ± 0.097
CUGGAGCAAUAUUACGGAUG,-1.12 ± 0.16,-0.927 ± 0.14
UGCGAGCAAUAUUACGUGCG,-2.56 ± 0.27,-0.202 ± 0.3
GUAAAGCAAUAUUACGAGCC,-2.51 ± 0.33,-2.56 ± 0.26
GCAUAGCAAUAUUACGACUG,-1.68 ± 0.12,-0.65 ± 0.16
UGGUAGCAAUAUUACGAGAG,-3.55 ± 0.28,-2.16 ± 0.21
UUUAAGCAAUAUUACGAGAU,-3.92 ± 0.26,-0.782 ± 0.16
GCAGAGCAAUAUUACGGGAU,-3.53 ± 0.2,-2.21 ± 0.19
CACCAGCAAUAUUACGGGCG,-1.81 ± 0.053,-0.295 ± 0.065
CGUUAGCAAUAUUACGGACU,-0.292 ± 0.08,0.16 ± 0.11
AUCCAGCAAUAUUACGGGUC,-3.06 ± 0.12,-1.62 ± 0.13
UGACAGCAAUAUUACGGGCU,-2.75 ± 0.16,-1.57 ± 0.097
UCCAAGCAAUAUUACGCCUA,-0.968 ± 0.12,0.0562 ± 0.1
GGGGAGCAAUAUUACGGCAA,-2.04 ± 0.33,-0.565 ± 0.25
GGACAGCAAUAUUACGGAGA,-2.98 ± 0.15,-2.61 ± 0.2
UCGAAGCAAUAUUACGCAUA,-3.01 ± 0.36,-2.72 ± 0.26
CCGAAGCAAUAUUACGCCGU,-2.44 ± 0.27,-1.04 ± 0.36
UCCGAGCAAUAUUACGGGAC,-3.59 ± 0.18,-2.2 ± 0.15
CUCCAGCAAUAUUACGUAUA,-3.54 ± 0.23,-0.63 ± 0.16
GACGAGCAAUAUUACGGCCA,–,0.241 ± 0.29
CCUGAGCAAUAUUACGGGCC,-3.87 ± 0.31,-2.45 ± 0.23
